Patent publication US9517265B2, “Methods for the prevention and/or treatment of memory impairment” (The Governing Council of the University of Toronto, priority 2010, dated 2016)
Entries after “also recorded” stand apart in the source; their conditions may differ.

Tests used:
α5GABAARs [1] = molecular target: T1, α5GABAARs (Mus musculus, UniProt P22723+Q8BHJ7); assay: Fear conditioning after IL-1β or LPS injection; assay type: in vivo, mice; details: for contextual fear memory, WT mice (in words): IL-1β 1 μg kg^−1 i.p. or LPS 125 μg kg^−1 i.p. 3 h before conditioning, inverse agonist co-administered; for cued fear memory to a conditioned tone stimulus (in words): mouse, in vivo
Method: Pavlovian fear-conditioning tasks were used for behavioral analysis^29. LPS (125 μg kg^−1, i.p., with physiological saline as the vehicle control) or IL-1β (1 μg kg^−1, i.p., with 0.1% bovine serum albumin as the vehicle control) was injected into male 3- to 4-month-old WT and Gabra5−/− mice 3 h before conditioning. The intensity of the electric footshock was 0.5 mA. For some mice, the inverse agonist L-655,708 (0.35 or 0.5 mg kg^−1, i.p.) or vehicle control (10% DMSO, i.p.) was injected 30 min before training. The movement of the mouse was monitored. The percentage of time that each mouse spent in a freezing position was determined using FreezeView software (Version 2.26, Actimetrics Inc, Wilmette, Ill., USA).
We have determined that IL-1β-induced impairment of contextual fear memory can be reversed by pharmacological inhibition of α5GABAA receptors by the inverse agonist MRK-016. Fear conditioning was performed 3 h after injection of IL-1β (1 μg kg^−1, i.p.) in both wild-type (WT) and α5GABAA receptor knock out (Gabra5−/−) mice. Mice were trained to associate a context (contextual fear) and a tone (cued fear) with an aversive electric footshock. 24 h after conditioning each mouse was placed in the training context, and contextual fear memory was measured as the percentage of time spent freezing. Cued fear memory was measured 48 h after training as the percentage of time spent freezing to the conditioned auditory tone in a novel context.

[2] = molecular target: T2, GABAA receptor α5-subtype (Homo sapiens, UniProt P18507+P31644); details: inverse agonist selective for the α5-subtype; cited from earlier work
T2 sequence (P31644 32-462): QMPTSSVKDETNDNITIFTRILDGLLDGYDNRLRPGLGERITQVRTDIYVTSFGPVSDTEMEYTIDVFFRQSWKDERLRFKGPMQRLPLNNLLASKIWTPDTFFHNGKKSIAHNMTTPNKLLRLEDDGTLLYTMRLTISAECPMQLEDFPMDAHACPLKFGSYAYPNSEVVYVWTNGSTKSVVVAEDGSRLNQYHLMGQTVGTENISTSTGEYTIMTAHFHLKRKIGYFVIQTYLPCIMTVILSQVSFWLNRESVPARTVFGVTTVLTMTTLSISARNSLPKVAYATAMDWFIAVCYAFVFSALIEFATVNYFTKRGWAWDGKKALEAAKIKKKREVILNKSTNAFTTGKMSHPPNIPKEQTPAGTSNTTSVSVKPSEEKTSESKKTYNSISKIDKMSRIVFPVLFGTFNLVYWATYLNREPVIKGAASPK
T2 sequence (P28472 26-473 partner): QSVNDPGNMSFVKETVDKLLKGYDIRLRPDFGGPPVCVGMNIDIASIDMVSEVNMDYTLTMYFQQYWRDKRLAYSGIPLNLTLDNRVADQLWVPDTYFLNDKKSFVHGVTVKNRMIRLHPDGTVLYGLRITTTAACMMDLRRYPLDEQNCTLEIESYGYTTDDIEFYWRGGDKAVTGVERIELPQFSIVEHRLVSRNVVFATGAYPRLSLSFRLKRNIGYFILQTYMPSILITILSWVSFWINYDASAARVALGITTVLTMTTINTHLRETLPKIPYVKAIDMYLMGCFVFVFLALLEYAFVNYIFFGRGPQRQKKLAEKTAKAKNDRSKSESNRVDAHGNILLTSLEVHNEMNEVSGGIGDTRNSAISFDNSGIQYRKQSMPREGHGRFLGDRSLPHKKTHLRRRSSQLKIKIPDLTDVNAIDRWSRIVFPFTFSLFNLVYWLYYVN
T2 sequence (P18507 40-467 limits assumed): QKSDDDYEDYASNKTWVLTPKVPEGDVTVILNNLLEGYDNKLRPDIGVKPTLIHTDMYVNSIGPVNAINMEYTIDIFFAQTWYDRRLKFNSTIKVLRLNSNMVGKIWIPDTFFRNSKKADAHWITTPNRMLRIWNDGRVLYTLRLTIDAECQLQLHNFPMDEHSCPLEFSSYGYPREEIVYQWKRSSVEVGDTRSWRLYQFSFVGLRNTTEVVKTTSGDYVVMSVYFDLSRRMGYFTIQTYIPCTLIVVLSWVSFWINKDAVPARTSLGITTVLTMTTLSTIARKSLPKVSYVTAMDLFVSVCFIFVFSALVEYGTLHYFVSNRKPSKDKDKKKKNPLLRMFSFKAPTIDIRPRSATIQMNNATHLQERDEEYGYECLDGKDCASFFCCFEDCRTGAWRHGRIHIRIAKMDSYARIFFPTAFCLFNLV

α5GABAARs [3] = molecular target: T1, α5GABAARs; assay: Tonic inhibitory current, whole cell voltage-clamp in cultured hippocampal neurons; assay type: cell-based, mice; design: endogenous in cells; host or cells: primary embryonic mouse hippocampal neurons, alone or co-cultured with cortical microglia; details: for effect on the tonic current (in words): cultured hippocampal neurons
α5GABAARs [4] = assay: Tonic current in ex vivo hippocampal slices (CA1 pyramidal neurons); assay type: cell-based; details: slices from WT mice treated with IL-1β 1 μg kg^−1 i.p. 2-3 h before sacrifice, n=6
Method: Recordings were performed as previously described^29. Hippocampal slices ([…]) were prepared from male 3- to 4-week-old WT mice with a mixed genetic background (C57BL/6/SvEv129). Mice were injected with vehicle (0.1% bovine serum albumin, i.p.) or IL-1β ([…], i.p.) 2-3 hours before sacrifice. To record the tonic GABAergic current, […] GABA was added, and the GABAAR competitive antagonist Bic ([…]) was applied to reveal the tonic current. All cells were recorded at a holding potential of −60 mV.

synaptic GABAARs = assay: Miniature inhibitory postsynaptic currents (mIPSCs) in cultured hippocampal neurons; assay type: cell-based, mice; details: IL-1β 20 ng ml^−1
postsynaptic GABAARs = assay: Whole-cell currents evoked by exogenous GABA (10 μM) in cultured hippocampal neurons; assay type: cell-based, mice; details: IL-1β 20 ng ml−1; GABA 10 μM; n=9
α5 subunit of GABAARs = assay: Hippocampal slice cell surface biotinylation assay; assay type: cell-based, C57BL/6 mice
Method: (§1) Cell surface biotinylation assay for α5 and α1 subunits of GABAARs was performed as previously described^25. Hippocampal slices ([…]) from male 10- to 14-week-old C57BL/6 mice were treated with IL-1β (20 ng ml^1, 40 min). Anti-GABAAR α1 and α5 antibodies were obtained from PhosphoSolutions (Aurora, Calif., USA).

α1 subunit of GABAARs = assay: Hippocampal slice cell surface biotinylation assay; assay type: cell-based, C57BL/6 mice; details: IL-1β 20 ng ml−1, 40 min, n=5
Method: as §1

T1 sequence (Q8BHJ7 32-463 limits assumed): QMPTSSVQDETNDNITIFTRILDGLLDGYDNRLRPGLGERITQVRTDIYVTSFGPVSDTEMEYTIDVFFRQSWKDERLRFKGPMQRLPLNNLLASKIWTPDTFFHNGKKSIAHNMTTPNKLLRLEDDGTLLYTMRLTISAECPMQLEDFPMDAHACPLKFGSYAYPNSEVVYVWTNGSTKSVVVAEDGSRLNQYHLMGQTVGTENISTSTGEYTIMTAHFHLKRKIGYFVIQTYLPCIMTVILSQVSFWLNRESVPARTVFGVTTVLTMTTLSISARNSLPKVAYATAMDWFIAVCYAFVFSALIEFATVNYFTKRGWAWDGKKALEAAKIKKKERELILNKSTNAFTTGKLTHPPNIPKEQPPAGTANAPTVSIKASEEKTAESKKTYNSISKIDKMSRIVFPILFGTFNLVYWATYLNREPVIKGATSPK
T1 sequence (P63080 26-473 partner): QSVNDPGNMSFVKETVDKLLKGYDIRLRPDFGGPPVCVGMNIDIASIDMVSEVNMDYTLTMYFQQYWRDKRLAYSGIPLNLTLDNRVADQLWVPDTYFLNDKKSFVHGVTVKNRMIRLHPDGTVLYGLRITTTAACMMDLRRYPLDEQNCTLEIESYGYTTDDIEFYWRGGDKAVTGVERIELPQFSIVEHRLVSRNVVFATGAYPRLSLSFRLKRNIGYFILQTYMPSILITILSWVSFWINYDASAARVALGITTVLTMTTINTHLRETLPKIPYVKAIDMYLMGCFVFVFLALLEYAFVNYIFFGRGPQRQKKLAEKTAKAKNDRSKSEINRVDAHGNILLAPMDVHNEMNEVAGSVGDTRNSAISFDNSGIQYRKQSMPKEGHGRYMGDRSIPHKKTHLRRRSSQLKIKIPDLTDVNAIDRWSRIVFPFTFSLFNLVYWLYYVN
T1 sequence (P22723 39-474): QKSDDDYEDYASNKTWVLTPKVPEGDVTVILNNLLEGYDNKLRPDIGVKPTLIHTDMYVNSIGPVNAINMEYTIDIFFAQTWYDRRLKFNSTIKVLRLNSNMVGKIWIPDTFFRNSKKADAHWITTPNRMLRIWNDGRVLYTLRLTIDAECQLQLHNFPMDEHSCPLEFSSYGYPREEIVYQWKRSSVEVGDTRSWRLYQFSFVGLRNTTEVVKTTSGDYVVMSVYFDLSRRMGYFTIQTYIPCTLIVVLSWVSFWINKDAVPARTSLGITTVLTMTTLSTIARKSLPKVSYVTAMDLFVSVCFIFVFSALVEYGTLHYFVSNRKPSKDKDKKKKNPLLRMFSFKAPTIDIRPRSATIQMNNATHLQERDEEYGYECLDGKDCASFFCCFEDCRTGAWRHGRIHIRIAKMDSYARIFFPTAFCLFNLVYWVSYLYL

## Cc1cc(-c2nncc3c(C(C)(C)C)c(OCc4ncnn4C)nn23)no1 [MRK-016, 3-(1,1-Dimethylethyl)-7-(5-methyl-3-isoxazolyl)-2-[(1-methyl-1H-1,2,4-triazol-5-yl)methoxy]-pyrazolo[1,5-d][1,2,4]triazine]
α5GABAARs [1]
  contextual fear memory, WT mice (in words): restored freezing scores for contextual fear memory to control values
  cued fear memory to a conditioned tone stimulus (in words): did not affect freezing to a conditioned tone stimulus
α5GABAARs [1]; listed as MRK-016A
  contextual fear memory, WT mice (in words): reverses memory deficits associated with inflammation
[2]
  EC50: 3 nM
α5GABAARs [3]
  effect on the tonic current (in words): inhibited the tonic current; also recorded: blocks the tonic inhibitory current in hippocampal neurons from mice

B1: IL-1β: pro-inflammatory cytokine interleukin-1β; recombinant mouse IL-1β; IL-13 and IL-β in b369 are misprints (protein, UniProt P10749 118-269, looked up)
Interleukin-1 beta: VPIRQLHYRLRDEQQKSLVLSDPYELKALHLNGQNINQQVIFSMSFVQGEPSNDKIPVALGLKGKNLYLSCVMKDGTPTLQLESVDPKQYPKKKMEKRFVFNKIEVKSKVEFESAEFPNWYISTSQAEHKPVFLGNNSGQDIIDFTMESVSS
α5GABAARs [1]; IL-1β 1 μg kg^−1 i.p. or LPS 125 μg kg^−1 i.p.
  contextual fear memory, Gabra5−/− mice (in words): exhibited no such deficits
α5GABAARs [1]
  contextual fear memory, WT mice (in words): showed impairment of contextual fear memory
  cued fear memory to a conditioned tone stimulus (in words): cued fear memory to a conditioned tone stimulus was not affected by IL-1β
α5GABAARs [4]
  tonic current: 44.9±9.4 pA
Synaptic GABAARs
  reduction of the amplitude of the mIPSCs: 17.3%±3.1%
  reduction of the charge transfer of the mIPSCs: 22.2%±7.0%
Synaptic GABAARs; IL-1ra 250 ng ml^−1, mean ± S.E.M., n = 6
  mIPSC Amplitude: 24.7 ± 2.1 pA
Synaptic GABAARs; IL-1ra 250 ng ml^−1, n = 6
  mIPSC Area: 279.0 pA · ms
  mIPSC Decay time: 14.8 ± 1.1 ms
  mIPSC Frequency: 3.7 ± 2.3 Hz
  mIPSC Rise time: 2.4 ± 0.1 ms
Postsynaptic GABAARs
  inhibition of the GABA-evoked peak current: 27.8%±2.2%
  inhibition of the GABA-evoked steady-state current: 12.7%±1.5%
α5 subunit of GABAARs; IL-1β 20 ng ml−1, 40 min, n=3
  α5 subunits expressed on the surface of the neurons: 183.3%±29.6%
α5 subunit of GABAARs; IL-1β 20 ng/ml for 20 or 40 min, preliminary study
  surface expression of α5GABAARs (in words): dramatically increases the surface expression of α5GABAARs
α1 subunit of GABAARs
  surface expression of α1 subunits (in words): caused no increase in the surface expression of α1 subunits
α5GABAARs [3]; 20 ng ml^−1 for 20 min
  increase of the amplitude of the tonic current: 45%
α5GABAARs [3]; IL-1β 20 ng ml^−1 20 min with or without SB203,580 20 μM 30 min
  tonic current density: 1.4±0.1 pA pF^−1
α5GABAARs [3]; IL-1β 20 ng ml^−1 for 20 min, n=22
  variance of the noise (root mean square deviation): 9.8±0.7 pA
α5GABAARs [3]; IL-1β 20 ng ml^−1 for 20 min, revealed by bicuculline 100 μM, n=22
  tonic current density: 1.6±0.1 pA pF^−1
α5GABAARs [3]; IL-1β 60 ng ml^−1 for 3 h, n=6
  tonic current density: 2.0±0.3 pA pF^−1
α5GABAARs [3]; IL-1β for 12-15 h, n=21
  tonic current density: 1.3±0.6 pA pF^−1
α5GABAARs [3]
  effect on the tonic current (in words): increased the amplitude of the tonic current; also recorded: increased the tonic current recorded in wild-type (WT) neurons but not in neurons isolated from Gabra5−/− mice
